Laboratory results published in paper PMC13170487 (Journal of molecular biology, 2025).
Each block holds one binder with its values, some of them ahead of it.

Columns and labels:
[1] = molecular target: CFTR-associated ligand (CAL) PDZ domain (UniProt Q9HD26-2 276-362); experiment: fluorescence polarisation
[2] = molecular target: T1, Tax-interacting protein 1 (TIP-1), His10 tag cleaved (UniProt O14907 1-124); experiment: fluorescence polarisation
T1 sequence (looked up): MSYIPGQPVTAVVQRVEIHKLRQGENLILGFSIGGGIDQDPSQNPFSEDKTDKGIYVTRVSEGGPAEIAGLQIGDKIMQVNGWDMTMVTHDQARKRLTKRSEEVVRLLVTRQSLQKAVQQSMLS

Ki [1]: 3.1 µM | Ki [2]: 2.4 µM
B1: BT-iCAL36 (peptide)
peptide: WRFKKANSRWPTSII

Ki [2]: > 1000 µM
B2: L-iCAL36 (peptide)
peptide: ANSRLPTSII

Ki [2]: 390 µM
B3: Y-iCAL36 (peptide)
peptide: ANSRYPTSII
